According to patent US9963506B2, “Human-mouse chimeric anti-CD147 antibody with non-fucosylated glycosylation” (Fourth Military Medical University, priority 2015, dated 2018):

Target: T1, CD147 (Homo sapiens, UniProt P35613)
T1 construct: FFPE tissue sections from a selected panel of human cancer tissue arrays; tissue Chaoying Biotechnology Co., LTD, China; host or cells: human cancer tissue arrays (lung, ovarian, stomach, esophagus, breast, cervical, liver, colon cancer), FFPE
T1 sequence (P35613 22-269 isoform P35613-2 limits assumed): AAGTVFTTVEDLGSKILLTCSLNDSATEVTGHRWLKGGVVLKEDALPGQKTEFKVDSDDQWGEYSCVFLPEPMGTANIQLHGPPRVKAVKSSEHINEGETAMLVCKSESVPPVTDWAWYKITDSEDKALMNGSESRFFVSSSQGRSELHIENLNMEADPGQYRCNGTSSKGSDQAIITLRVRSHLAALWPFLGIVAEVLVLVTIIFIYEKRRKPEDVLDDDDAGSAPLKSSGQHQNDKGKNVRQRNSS
Test: Immunohistochemical detection of CD147 in human cancer tissue arrays (tissue cross reactivity)
Format: binding
Description: To test the specificity of Metuzumab (HcHAb18), tissue cross reactivity of Metuzumab was evaluated in FFPE tissue sections from a selected panel of human cancer tissue arrays (Chaoying Biotechnology Co., LTD, China.). Slides were microwaved for 10 min in 10 mM sodium citrated (pH 6.0), cooled for 30 min at 25° C. After incubating for 10 min in 3% H2O2 to block endogenous peroxidase, and blocking for 1 hr in 10% goat serum, slides were incubated overnight in a humidity chamber with biotinylated Metuzumab (30 μg/ml). Binding was visualized with streptavidin-conjugated peroxidase (ZsBio, China) and DAB detection system (ZsBio, China). Sections were analyzed using a bright-field microscope. The staining results were evaluated by 2 experienced pathologist in a blinded manner and classified into four categories: of 0 (no visible staining), 1+ (light brown), 2+ (mid-brown), and 3+ (dark brown), respectively, with the same intensity covering more than 75% of the staining area.

With “Metuzumab: human-mouse chimeric anti-CD147 IgG1, heavy chain SEQ ID NO: 4, light chain SEQ ID NO: 3, Mannose-5 glycoform lacking fucose and xylose” the Positive rate (Colon cancer) was 82.00%, the Sensitivity response rate (Colon cancer) was 82.00% and the Specificity (Colon cancer) was 84.00%. The “Tumor tissues specifically bound (positive/total)” value (Colon cancer) was 41/50, the “Staining level 0 (no visible staining), number of tissues” value (“Staining level 0 (no visible staining)” below) (Colon cancer, number 50) was 9 and the “Staining level 1+ (light brown), number of tissues” value (“Staining level 1+ (light brown)” below) (Colon cancer, number 50) was 8. The “Staining level 2+ (mid-brown), number of tissues” value (“Staining level 2+ (mid-brown)” for short) (Colon cancer, number 50) was 26, the “Staining level 3+ (dark brown), number of tissues” value (“Staining level 3+ (dark brown)” below) (Colon cancer, number 50) was 7 and the Positive rate (Esophagus cancer) was 93.75%. The Sensitivity response rate (Esophagus cancer) was 93.75%, the Specificity (Esophagus cancer) was 81.25% and the “Tumor tissues specifically bound (positive/total)” value (Esophagus cancer) was 30/32. For the same substance, the “Staining level 0 (no visible staining)” value (Esophagus cancer, number 32) was 2, the “Staining level 1+ (light brown)” value (Esophagus cancer, number 32) was 6 and the “Staining level 2+ (mid-brown)” value (Esophagus cancer, number 32) was 13. For the same substance, the “Staining level 3+ (dark brown)” value (Esophagus cancer, number 32) was 11, the Positive rate (Liver cancer) was 85.00% and the Sensitivity response rate (Liver cancer) was 85.00%. The Specificity (Liver cancer) was 75.00%, the “Tumor tissues specifically bound (positive/total)” value (Liver cancer) was 17/20 and the “Staining level 0 (no visible staining)” value (Liver cancer, number 20) was 3. For the same substance, the “Staining level 1+ (light brown)” value (Liver cancer, number 20) was 11, the “Staining level 2+ (mid-brown)” value (Liver cancer, number 20) was 6 and the Positive rate (Lung cancer) was 88.24%. For the same substance, the Sensitivity response rate (Lung cancer) was 88.24%, the Specificity (Lung cancer) was 91.67% and the “Tumor tissues specifically bound (positive/total)” value (Lung cancer) was 60/68. For the same substance, the “Staining level 0 (no visible staining)” value (Lung cancer, number 68) was 8, the “Staining level 1+ (light brown)” value (Lung cancer, number 68) was 5 and the “Staining level 2+ (mid-brown)” value (Lung cancer, number 68) was 23. For the same substance, the “Staining level 3+ (dark brown)” value (Lung cancer, number 68) was 32, the Positive rate (Mammary cancer) was 90.00% and the Sensitivity response rate (Mammary cancer) was 90.00%. The Specificity (Mammary cancer) was 77.50%, the “Staining level 0 (no visible staining)” value (Mammary cancer, number 40) was 4 and the “Staining level 1+ (light brown)” value (Mammary cancer, number 40) was 6. The “Staining level 2+ (mid-brown)” value (Mammary cancer, number 40) was 11, the “Staining level 3+ (dark brown)” value (Mammary cancer, number 40) was 19 and the Positive rate (Mammary tissue) was 22.50%. For the same substance, the “Staining level 0 (no visible staining)” value (Mammary tissue, number 40) was 31, the “Staining level 1+ (light brown)” value (Mammary tissue, number 40) was 5 and the “Staining level 2+ (mid-brown)” value (Mammary tissue, number 40) was 2. The “Staining level 3+ (dark brown)” value (Mammary tissue, number 40) was 2, the Positive rate (Normal cervix uteri) was 0% and the “Staining level 0 (no visible staining)” value (Normal cervix uteri, number 4) was 4. The “Staining level 1+ (light brown)” value (Normal cervix uteri, number 4) was 0, the “Staining level 2+ (mid-brown)” value (Normal cervix uteri, number 4) was 0 and the “Staining level 3+ (dark brown)” value (Normal cervix uteri, number 4) was 0. For the same substance, the Positive rate (Normal colon) was 16.00%, the “Staining level 0 (no visible staining)” value (Normal colon, number 50) was 42 and the “Staining level 1+ (light brown)” value (Normal colon, number 50) was 5. For the same substance, the “Staining level 2+ (mid-brown)” value (Normal colon, number 50) was 2, the “Staining level 3+ (dark brown)” value (Normal colon, number 50) was 1 and the Positive rate (Normal esophagus) was 18.75%. The “Staining level 0 (no visible staining)” value (Normal esophagus, number 16) was 13, the “Staining level 1+ (light brown)” value (Normal esophagus, number 16) was 3 and the “Staining level 2+ (mid-brown)” value (Normal esophagus, number 16) was 0. The “Staining level 3+ (dark brown)” value (Normal esophagus, number 16) was 0, the Positive rate (Normal liver) was 25.00% and the “Staining level 0 (no visible staining)” value (Normal liver, number 4) was 3. The “Staining level 1+ (light brown)” value (Normal liver, number 4) was 0, the “Staining level 2+ (mid-brown)” value (Normal liver, number 4) was 1 and the “Staining level 3+ (dark brown)” value (Normal liver, number 4) was 0. For the same substance, the Positive rate (Normal lung) was 8.33%, the “Staining level 0 (no visible staining)” value (Normal lung, number 12) was 10 and the “Staining level 1+ (light brown)” value (Normal lung, number 12) was 2. For the same substance, the “Staining level 2+ (mid-brown)” value (Normal lung, number 12) was 0, the “Staining level 3+ (dark brown)” value (Normal lung, number 12) was 0 and the Positive rate (Normal ovary) was 0%. The “Staining level 0 (no visible staining)” value (Normal ovary, number 12) was 12, the “Staining level 1+ (light brown)” value (Normal ovary, number 12) was 0 and the “Staining level 2+ (mid-brown)” value (Normal ovary, number 12) was 0. For the same substance, the “Staining level 3+ (dark brown)” value (Normal ovary, number 12) was 0, the Positive rate (Ovary cancer) was 75% and the Sensitivity response rate (Ovary cancer) was 75.00%. For the same substance, the Specificity (Ovary cancer) was 100%, the “Staining level 0 (no visible staining)” value (Ovary cancer, number 12) was 3 and the “Staining level 1+ (light brown)” value (Ovary cancer, number 12) was 2. For the same substance, the “Staining level 2+ (mid-brown)” value (Ovary cancer, number 12) was 3, the “Staining level 3+ (dark brown)” value (Ovary cancer, number 12) was 4 and the “Tumor tissues specifically bound (positive/total)” value (breast cancer) was 36/40. The Positive rate (cervical cancer) was 85.00%, the Sensitivity response rate (cervical cancer) was 85.00% and the Specificity (cervical cancer) was 100%. For the same substance, the “Tumor tissues specifically bound (positive/total)” value (cervical cancer) was 17/20, the “Staining level 0 (no visible staining)” value (cervical cancer, number 20) was 3 and the “Staining level 1+ (light brown)” value (cervical cancer, number 20) was 2. For the same substance, the “Staining level 2+ (mid-brown)” value (cervical cancer, number 20) was 5, the “Staining level 3+ (dark brown)” value (cervical cancer, number 20) was 10 and the Positive rate (gastric cancer) was 78.26%. For the same substance, the Sensitivity response rate (gastric cancer) was 78.26%, the Specificity (gastric cancer) was 80.95% and the “Staining level 0 (no visible staining)” value (gastric cancer, number 23) was 5. The “Staining level 1+ (light brown)” value (gastric cancer, number 23) was 1, the “Staining level 2+ (mid-brown)” value (gastric cancer, number 23) was 7 and the “Staining level 3+ (dark brown)” value (gastric cancer, number 23) was 10. For the same substance, the Positive rate (normal stomach) was 19.05%, the “Staining level 0 (no visible staining)” value (normal stomach, number 21) was 17 and the “Staining level 1+ (light brown)” value (normal stomach, number 21) was 3. For the same substance, the “Staining level 2+ (mid-brown)” value (normal stomach, number 21) was 1, the “Staining level 3+ (dark brown)” value (normal stomach, number 21) was 0 and the “Tumor tissues specifically bound (positive/total)” value (ovarian cancer) was 9/12. For the same substance, the “Tumor tissues specifically bound (positive/total)” value (stomach cancer) was 18/23.
